Series [1] concerns the target CPEB1 ZZ domain (isolated) (Homo sapiens, UniProt Q9BZB8 503-566). The series can be described thus: NMR titration.
The target of series [2] is T1, CPEB1 RRM12 (tandem RRMs) (Homo sapiens, UniProt Q9BZB8 285-355+361-514, internal_change). Put plainly: NMR.
The target of series [3] is T2, CPEB4 RRM12 (tandem RRMs) (Homo sapiens, UniProt Q17RY0-3 54-256).
T2 sequence: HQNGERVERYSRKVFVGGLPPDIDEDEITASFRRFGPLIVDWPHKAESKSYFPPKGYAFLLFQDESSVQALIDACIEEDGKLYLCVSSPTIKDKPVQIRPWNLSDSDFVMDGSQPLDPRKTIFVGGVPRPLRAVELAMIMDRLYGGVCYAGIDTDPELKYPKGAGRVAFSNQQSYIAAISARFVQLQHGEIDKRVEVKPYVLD
The series can be described thus: NMR titration.

The target of series [4] is T1, CPEB1 RRM12 (tandem RRMs). Put plainly: NMR titration.
Series [5] addresses T1, CPEB1 RRM12 (tandem RRMs). The series can be described thus: NMR titration and solution structure.

For the molecule UUUUUAU (ssRNA) [UUUUUAU (consensus CPE)], in series [1], the binding result is recorded as “no binding”. For the molecule CUUUA (ssRNA), in series [2], the binding result was “binds”. Turning to UUUUAU (ssRNA) [UUUUAU (consensus CPE)], the binding result in series [3] and in series [4] was “binds” throughout. With UUUUA (ssRNA), the binding result in series [5] is listed as “binds”.
